Experimental data as given in PMC7261184, “Human REXO2 controls short mitochondrial RNAs generated by mtRNA processing and decay machinery to prevent accumulation of double-stranded RNA” (Nucleic Acids Research, 2020).

Biological target: the molecule itself
Experiment: SEC-MALS; gel filtration coupled with multi-angle light scattering

B1: REXO2, N-terminal-truncated (Δ28aa), wild type (enzyme, human, UniProt Q9Y3B8 29-237, looked up)
chain: GGAAMAAGESMAQRMVWVDLEMTGLDIEKDQIIEMACLITDSDLNILAEGPNLIIKQPDELLDSMSDWCKEHHGKSGLTKAVKESTITLQQAEYEFLSFVRQQTPPGLCPLAGNSVHEDKKFLDKYMPQFMKHLHYRIIDVSTVKELCRRWYPEEYEFAPKKAASHRALDDISESIKELQFYRNNIFKKKIDEKKRKIIENGENEKTVS
notes: human REXO2 (oligoribonuclease, mitochondrial), lacking the N-terminal 28 residues (Δ28aa); Crystallised with an RNA oligonucleotide and Ca2+; also called WT; wild-type REXO2; not shown: 6x His-SUMO, N-terminal, cleaved
stoichiometry N: 2
